This series deals with the molecule itself. Kind of series: self-assembly into a homododecamer; gel filtration and negative stain electron microscopy.

B1: MjTET (TET aminopeptidase of Methanocaldococcus jannaschii, product of gene MJ0555) (enzyme)
chain: MSVVEYLKKLSKLHGISGREDSVREFMKKELEKYCDSVEIDNFGNLIAKRGNKGKKIMIAAHMDEIGLMVKYIDDNGFLKFTKIGGIYDPTILNQKVVVHGSKGDLIGVLGSKPPHRMKEEEKTKIIKYEDMFIDIGAESREEAIEMGVNIGTWVSFLSEVYDLGKNRLTGKAFDDRVGCAVLLEVMKRLSEEDIDCQVYAVGTVQEEVGLKGARVSAFKINPDVAIALDVTIAGDHPGIKKEDAPVDLGKGPVVGIVDASGRGLIAHPKVLDMIKAVSEKYKIDVQWEVGEGGTTDATAIHLTREGIPTGVISVPARYIHTPVEVIDKRDLEKTVELVYNCIKEVNNFF
notes: Untagged recombinant form made in E. coli; It forms a tetrahedral homododecamer; Activity assays were run with 0.1 mM CoCl2; also called MJ0555 protein; TET protein
Regarding B1, the binding result is reported as “binds”.

For the origin of these results see patent US20210002623A1 (CENTRE NATIONAL DE LA RECHERCHE SCIENTIFIQUE, published 2021).
